# Paper PMC8303780, “Mutational Analysis of Redβ Single Strand Annealing Protein: Roles of the 14 Lysine Residues in DNA Binding and Recombination In Vivo”
# T1: Redβ K154A (bacteriophage λ, UniProt P03698 1-261, K154A)
# T1 sequence: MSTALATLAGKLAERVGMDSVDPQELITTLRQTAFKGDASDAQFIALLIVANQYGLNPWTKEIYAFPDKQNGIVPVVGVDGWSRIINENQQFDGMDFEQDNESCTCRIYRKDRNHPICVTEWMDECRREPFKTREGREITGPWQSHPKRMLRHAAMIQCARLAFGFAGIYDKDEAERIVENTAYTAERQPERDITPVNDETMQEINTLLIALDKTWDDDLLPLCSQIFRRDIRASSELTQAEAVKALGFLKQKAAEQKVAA
# T2: Redβ K132A (bacteriophage λ, UniProt P03698 1-261, K132A)
# T2 sequence: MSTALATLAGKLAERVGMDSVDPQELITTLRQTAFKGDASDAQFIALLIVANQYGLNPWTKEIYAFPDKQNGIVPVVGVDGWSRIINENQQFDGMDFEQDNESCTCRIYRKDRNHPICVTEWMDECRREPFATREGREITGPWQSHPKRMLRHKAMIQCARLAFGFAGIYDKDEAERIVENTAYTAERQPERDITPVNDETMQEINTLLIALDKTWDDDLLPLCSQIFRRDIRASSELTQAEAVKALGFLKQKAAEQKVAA
# T3: Redβ K148A (bacteriophage λ, UniProt P03698 1-261, K148A)
# T3 sequence: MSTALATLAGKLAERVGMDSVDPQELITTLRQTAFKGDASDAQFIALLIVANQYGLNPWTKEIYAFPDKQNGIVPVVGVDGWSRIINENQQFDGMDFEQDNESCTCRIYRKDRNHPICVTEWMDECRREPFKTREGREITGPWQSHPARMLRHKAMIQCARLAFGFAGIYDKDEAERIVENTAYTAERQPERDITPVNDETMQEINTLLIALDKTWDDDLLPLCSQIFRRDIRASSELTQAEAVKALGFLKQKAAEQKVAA
# T4: Redβ K172A (bacteriophage λ, UniProt P03698 1-261, K172A)
# T4 sequence: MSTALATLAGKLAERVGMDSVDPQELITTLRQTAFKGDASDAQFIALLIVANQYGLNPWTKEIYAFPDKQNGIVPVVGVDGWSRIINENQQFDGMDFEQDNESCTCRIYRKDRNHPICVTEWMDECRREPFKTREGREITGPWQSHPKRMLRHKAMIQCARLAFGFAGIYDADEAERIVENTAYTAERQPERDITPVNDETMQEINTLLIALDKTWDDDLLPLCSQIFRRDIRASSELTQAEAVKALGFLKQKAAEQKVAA
# T5: Redβ K69A (bacteriophage λ, UniProt P03698 1-261, K69A)
# T5 sequence: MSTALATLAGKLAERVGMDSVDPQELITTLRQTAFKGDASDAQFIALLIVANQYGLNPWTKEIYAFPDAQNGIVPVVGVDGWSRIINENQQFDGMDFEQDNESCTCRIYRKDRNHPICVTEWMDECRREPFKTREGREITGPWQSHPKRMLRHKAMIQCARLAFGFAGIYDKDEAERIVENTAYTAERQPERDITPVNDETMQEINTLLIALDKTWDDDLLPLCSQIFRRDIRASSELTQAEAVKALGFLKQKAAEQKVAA
# T6: Redβ K36A (bacteriophage λ, UniProt P03698 1-261, K36A)
# T6 sequence: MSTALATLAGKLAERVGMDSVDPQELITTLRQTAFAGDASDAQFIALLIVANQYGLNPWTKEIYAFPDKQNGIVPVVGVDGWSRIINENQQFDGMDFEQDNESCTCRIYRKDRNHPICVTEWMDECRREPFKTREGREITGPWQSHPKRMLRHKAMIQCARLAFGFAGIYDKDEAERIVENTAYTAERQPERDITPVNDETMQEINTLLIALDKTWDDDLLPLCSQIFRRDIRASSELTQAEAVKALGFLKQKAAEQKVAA
# Assays:
# Test in all cases: EMSA; strands added sequentially; Anisotropy: 50 mM Tris-HCl pH 7.5, 1 mM DTT, 0.1 mg/mL BSA, 10 nM FAM48, 23 °C (Kd per monomer); gel assay: 10 µM Redβ, 50 µM nt of each oligo, PBS, 37 °C, 1% agarose at 22 °C
# Details in all cases: protein: recombinant; tags: 6xHis removed by thrombin; residual N-terminal GSH; label: 5'-Cy3 and 5'-Cy5; complementary 50-mers; annealed by protein
# Redβ K154A = target: T1, Redβ K154A
# Redβ K132A = target: T2, Redβ K132A
# Redβ K148A = target: T3, Redβ K148A
# Redβ K172A = target: T4, Redβ K172A
# Redβ K69A = target: T5, Redβ K69A
# Redβ K36A = target: T6, Redβ K36A
binder,measurement,setting,value
"annealed duplex of Cy3 and Cy5 50-mers, strands added sequentially (dsDNA) DNA 1: GCGGATGGCTTAGAGCAGAATCGCCCTGCATAGCTCGATTTTTGCGGATG DNA 2: CCATCCGCAAAAATCGAGCTATGCAGGGCGATTCTGCTCTAAGCCATCCG",binding result,Redβ K154A,no binding
same,binding result,Redβ K132A,no binding
same,binding result,Redβ K148A,no binding
same,binding result,Redβ K172A,no binding
same,binding result,Redβ K69A,binds
same,binding result,Redβ K36A,binds
